Data from patent CN110684105A.

Target: 重组HSP90蛋白 (recombinant HSP90 protein expressed in E. coli BL21 from pET-30a-HSP90) (human) (UniProt P08238)
Test: indirect ELISA, HSP90 recombinant protein coated at 1 μg/mL, antibody diluted 1:10^3 to 1:10^6, HRP goat anti-mouse

效价 (ELISA titer, dilution factor) (dilution factor): 100000
B1: 抗HSP90单克隆抗体 46-2-C9 (anti-HSP90 monoclonal antibody from hybridoma 46-2-C9, purified from mouse ascites) (antibody, V domains shown)
VH: EVQLQQSGPELVKPGASVKISCKASGYSFTGYYMHWVKQSHVKSLEWIGRINPYNGATSYNQNFKDKASLTVDKSSSTAYMELHSLTSEDSAVYYCARSKKYGNYTWFAYWGQGTLVTVSA
VL: DVQMTQSQKFMSTSVGDRVSVTCKASQNVGTNVAWYQQKPGQSPKALIYSASYRYSGVPDRFTGSGSGTDFTLTISNVQSEDLAEYFCQQYNSYIFTFGSGTKLEIKR
